In patent US20060257887A1:

Target: GFP 1-10 OPT (Aequorea victoria) [GFP: P42212]
Assay: cell-based or functional assay

Substance “HPS-GFP 11 M2 (3-hexulose 6-phosphate synthase fused to GFP S11 M2; L221H, F223S, T225N)” has a complementation rate (fold (decrease)) of 5.
